Data: patent US20110189190A1 (Eli Lilly, published 2011)

What was measured:
human hepcidin-22 [1] = biological target: T1, human hepcidin-22 (human); experiment: MSD sandwich immunoassay: Mab OH4 capture, ruthenium-labelled Mab 3.23 detection; no sandwich signal (assigned to the capture antibody OH4)
T1 construct: Endogenous serum form (MW 2436 Da) in the MALDI-TOF experiments
T1 peptide: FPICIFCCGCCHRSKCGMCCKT
Method: (§1) Streptavidin-coated and blocked wells of an ELISA plate were incubated for 1 hour with biotinylated Mab OH4 at a concentration of 2 mg/L. Afterward, wells were aspirated and washed three times with TBST (Tris buffered saline containing 10 mmol/L Tris pH 7.40, 150 mmol/L NaCl with 1 mL Tween 20/L). Next, 100 μL of hepcidin standards (varying concentrations of synthesized hepcidin-25 protein in assay buffer consisting of 50 mmol/L HEPES, pH 7.40, 150 mmol/L NaCl, 10 mL/L Triton X-100, 5 mmol/L EDTA, and 5 mmol/L EGTA) were added to the wells to generate a calibration curve. At the same time, serum samples were diluted 1:20 in assay buffer and added to their respective wells, and the ELISA plate was allowed to incubate for 1 hour at room temperature. […] Following aspiration, wells were washed three times with TBST, and the ELISA plate was developed using a MSD reader, which passed a voltage across the wells and recorded ruthenium electrochemiluminescence from each well. MSD software and SigmaPlot version 8.0 were used for fitting of the calibration curves for the ELISA.
(§2) Synthesized hepcidin-25 protein was prepared at a concentration of 10 μg/L and serially diluted to create a standard curve.

human hepcidin-20 [2] = biological target: T2, human hepcidin-20 (human); experiment: as above
T2 construct: Endogenous serum form (MW 2192 Da) in the MALDI-TOF experiments
T2 peptide: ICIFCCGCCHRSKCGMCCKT
Method: as §1, §2

human hepcidin-25 [3] = biological target: T3, human hepcidin-25 (human); experiment: SPR, 25 C, Mab captured, hepcidin-25 injected
T3 construct: also called mature human hepcidin; human hepcidin-25 control peptide
T3 peptide: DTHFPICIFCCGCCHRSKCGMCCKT
Method: A SPR biosensor such as the BlAcore® T100 may be used to measure binding kinetics and affinity of antibodies such as the antibodies disclosed herein. The BIAcore® system utilizes the optical properties of SPR to detect alteration in protein concentration of interacting molecules within a dextran biosensor matrix. Except as noted, all reagents and materials are purchased from BIAcore® AB (Upsala, Sweden). All measurements are performed at 25° C. Samples are dissolved in HBS-EP buffer (150 mM sodium chloride, 3 mM EDTA, 0.05% (w/v) surfactant P-20, and 10 mM HEPES, pH 7.4). To capture Fabs with human kappa, goat-anti-human kappa is immobilized on flow cells 1 to 4 of a CMS sensor chip at a level of 5000-10000 response units (Rus) using an amine coupling kit. To capture Mabs with mouse IgG1, goat-anti-mouse Fc gamma is immobilized on flow cells 1 to 4 of a CMS sensor chip at a level of 5000-10000 Rus using an amine coupling kit. […] Fabs prepared from E. coli periplasma and Mabs prepared from mammalian cell culture are evaluated using multiple analytical cycles. […] The measurements are obtained at 25° C. and the association and dissociation rates for each cycle are evaluated using a “1:1 with mass transfer” binding model in the BIAevaluation software.

human hepcidin-25 [4] = biological target: T3, human hepcidin-25; experiment: SPR, 25 C
human hepcidin-25 [5] = biological target: T3, human hepcidin-25; experiment: immunoprecipitation from human serum on plate-coated antibody, acid elution, MALDI-TOF mass spectrometry (linear mode)
Description: FIG. 3 depicts a MALDI-TOF mass spectrum of the forms of human hepcidin immunoprecipitated from human sera with the anti-hepcidin-25 selective Mab 5E8. Signal 1 has a mass which is consistent with the expected mass of intact human hepcidin-25 (2790 Da). […] The mass spectrum was generated on a MALDI-TOF mass spectrometer utilizing a positive ion, linear mode method with a-cyano-4-hydroxycinnamic acid (peptide matrix) as sample matrix essentially as described in Example 6 below.
Anti-human hepcidin Mabs or Fabs are coated onto separate wells of a 96-well standard ELISA plate in carbonate-bicarbonate (pH 9.4) buffer for 1 hour at room temperature at a concentration of 2 mg/L. The wells are then aspirated and washed 3 times with TBST. Human serum samples containing a known amount of hepcidin-25 (diluted in assay buffer) is added at 100 μl/well for one hour at room temperature. The wells are aspirated and washed 3 times with TBST. […] The sample is dried and analyzed with a 4700 TOF-TOF Mass Spectrometer (Applied Biosystems) operated in the linear mode.
(§3) Similar experiments were performed using MALDI-TOF spectrometry to determine which hepcidin species in human serum are bound by Mab 5E8. These experiments determined that Mab 5E8 bound only hepcidin-25 in human serum (FIGS. 3 and 4). […]

human hepcidin-20 [6] = biological target: T2, human hepcidin-20; experiment: immunoprecipitation from human serum, MALDI-TOF mass spectrometry
Method: Anti-human hepcidin Mabs or Fabs are coated onto separate wells of a 96-well standard ELISA plate in carbonate-bicarbonate (pH 9.4) buffer for 1 hour at room temperature at a concentration of 2 mg/L. The wells are then aspirated and washed 3 times with TBST. Human serum samples containing a known amount of hepcidin-25 (diluted in assay buffer) is added at 100 μl/well for one hour at room temperature. The wells are aspirated and washed 3 times with TBST. Captured hepcidin polypeptides are eluted by adding 40 μL/well of 0.1% formic acid for 5 minutes at room temperature. The eluted samples are collected and concentrated with a C4 ZipTip™ (Millipore, Billerica, Mass.), a 10 μL pipette tip with a bed of chromatography media for purifying and concentrating femtomoles to picomoles of protein or peptides, ideally ranging from 25,000 MW to 100,000 MW. […] The sample is dried and analyzed with a 4700 TOF-TOF Mass Spectrometer (Applied Biosystems) operated in the linear mode.
as §3

mouse hepcidin-25 [7] = biological target: T4, mouse hepcidin-25 (mouse); experiment: SPR, 25 C, Mab captured
T4 peptide: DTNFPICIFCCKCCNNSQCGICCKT

rat hepcidin-25 [8] = biological target: T5, rat hepcidin-25 (rat); experiment: SPR, 25 C, Mab captured
T5 peptide: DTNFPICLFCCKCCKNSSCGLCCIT

human hepcidin-25 [9] = biological target: T3, human hepcidin-25; experiment: immunoprecipitation from human serum on plate-coated antibody, acid elution, MALDI-TOF mass spectrometry (linear mode)
Description: (§4) Signal 1 has a mass which is consistent with the expected mass of intact human hepcidin-25 (approximate molecular weight (MW) of 2790 Daltons (Da)). Signal 2 has a mass which is consistent with the expected mass of intact human hepcidin-20 (MW of 2192 Da). […] The mass spectrum was generated on a MALDI-TOF mass spectrometer utilizing a positive ion, linear mode method with a-cyano-4-hydroxycinnamic acid (peptide matrix) as sample matrix essentially as described in Example 6 below.
(§5) Anti-human hepcidin Mabs or Fabs are coated onto separate wells of a 96-well standard ELISA plate in carbonate-bicarbonate (pH 9.4) buffer for 1 hour at room temperature at a concentration of 2 mg/L. The wells are then aspirated and washed 3 times with TBST. Human serum samples containing a known amount of hepcidin-25 (diluted in assay buffer) is added at 100 μl/well for one hour at room temperature. The wells are aspirated and washed 3 times with TBST. Captured hepcidin polypeptides are eluted by adding 40 μL/well of 0.1% formic acid for 5 minutes at room temperature. […] The sample is dried and analyzed with a 4700 TOF-TOF Mass Spectrometer (Applied Biosystems) operated in the linear mode.

human hepcidin-20 [10] = biological target: T2, human hepcidin-20; experiment: as above
Description: as §4, §5

human hepcidin-25 [11] = biological target: T3, human hepcidin-25; experiment: SPR, Mab immobilized on CM4 chip
Method: The flow cells were then injected with human hepcidin-25. Next, the flow cells were injected with Mab 5E8.

human hepcidin-25 [12] = biological target: T3, human hepcidin-25; experiment: SPR
human hepcidin-25 [13] = biological target: T3, human hepcidin-25; experiment: SPR, Mab captured by anti-mouse IgG1 Fc
Method: Briefly, on a Biacore® T100, goat anti-mouse IgG1 Fc polyclonal antibody was immobilized onto flow cell 1 to 4 of CMS chip at 5000-15000 response units (Ru). Mab 5E8 was captured on flow cell 2, Mab 4C11 was captured on flow cell 3, and Mab 3A9 was captured on flow cell 4. Flow cell 1 was used as a reference flow cell. All flow cells were then injected with human hepcidin-25.

human hepcidin-20 [14] = biological target: T2, human hepcidin-20; experiment: SPR, 25 C, Mab captured
human hepcidin-22 [15] = biological target: T1, human hepcidin-22; experiment: SPR, 25 C
mouse hepcidin-25 [16] = biological target: T4, mouse hepcidin-25; experiment: SPR, 25 C
rat hepcidin-25 [17] = biological target: T5, rat hepcidin-25; experiment: SPR, 25 C

B1: mouse monoclonal antibody OH4 (antibody, mouse IgG1, kappa, V domains shown)
VH: EVKLVESGGGLVKPGGSLKISCAASGFAFSSYDMSWVRQTPEKRLEWVATIISGGTYTYYPDSVKGRFTISRDNARNTLNLQMSSLRAEDTALYYCADDGYIHWGQGTLVTVSA
VL: DIVMTQIPLTLSVTIGQPASISCKSSQSLLYPNGKTYLTWLLQRPGQSPKRLIYLVSKLDPGVPDRFTGSGSGADFTLKISRVEAEDLGIYYCIQGSHFPWTFGGGTKLELKR
notes: also called Mab OH4
Question: Does B1 bind (human hepcidin-22 [1])?
Answer: no binding (tested: 10 ug/L)

Question: Does B1 bind (human hepcidin-20 [2])?
Answer: no binding (tested: 10 ug/L)

Question: And the Kd (human hepcidin-25 [3])?
Answer: ~1.2 nM

B2: mouse monoclonal antibody OB3 (antibody, mouse IgG1, kappa, V domains shown)
VH: EVKLVESGGGLVKPGGSLKISCAASGFAFSSYDMSWVRQTPEKRLEWVATIISGGTYTYYPDSVKGRFTISRDNARNTLNLQMSSLRAEDTALYYCADDGYIHWGQGTLVTVSA
VL: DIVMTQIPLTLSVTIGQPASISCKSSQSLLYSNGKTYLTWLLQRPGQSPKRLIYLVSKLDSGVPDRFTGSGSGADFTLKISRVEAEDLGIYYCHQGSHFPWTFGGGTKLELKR
Question: Does B2 bind (human hepcidin-25 [4])?
Answer: binds

B3: mouse monoclonal antibody OB1 (antibody, mouse IgG1, kappa, V domains shown)
VH: EVKLVESGGGLVKPGGSLKISCAASGFAFSSYDMSWVRQTPEKRLEWVATIISGGTYTYYPDSVKGRFTISRDNARNTLNLQMSSLRAEDTALYYCADDGYIHWGQGTLVTVSA
VL: DIVMTQIPLTLSVTIGQPASISCKSSQSLLYRNGKTYLTWLLQRPGQSPKRLIYLVSKLDPGVPDRFTGSGSGADFTLKISRVEAEDLGIYYCHQGSHFPWTFGGGTKLELKR
Question: Does B3 bind (human hepcidin-25 [4])?
Answer: binds

B4: mouse monoclonal antibody OE1 (antibody, mouse IgG1, kappa, V domains shown)
VH: EVKLVESGGGLVKPGGSLKISCAASGFAFSSYDMSWVRQTPEKRLEWVATIISGGTYTYYPDSVKGRFTISRDNARNTLNLQMSSLRAEDTALYYCADDGYIHWGQGTLVTVSA
VL: DIVMTQIPLTLSVTIGQPASISCKSSQSLLYPNGKTYLTWLLQRPGQSPKRLIYLVSKLDPGVPDRFTGSGSGADFTLKISRVEAEDLGIYYCFQGSHFPWVFGGGTKLELKR
notes: also called 0E1
Question: Does B4 bind (human hepcidin-25 [4])?
Answer: binds

B5: mouse monoclonal antibody 5E8 (antibody, mouse IgG1, kappa, V domains shown)
VH: EVKLVESGGGLVKPGGSLKISCAASGFAFSSYDMSWVRQTPEKRLEWVATIISGGTYTYYPDSVKGRFTISRDNARNTLNLQMSSLRAEDTALYYCADDGYIHWGQGTLVTVSA
VL: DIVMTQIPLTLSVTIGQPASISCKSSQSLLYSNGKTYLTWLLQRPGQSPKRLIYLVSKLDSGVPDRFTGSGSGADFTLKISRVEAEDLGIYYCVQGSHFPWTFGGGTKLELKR
notes: also called Mab 5E8
Question: What does the source list for B5?
Answer: binding result (human hepcidin-25 [5]): binds; binding result (human hepcidin-20 [6]): no binding; binding result (mouse hepcidin-25 [7]): no binding; binding result (rat hepcidin-25 [8]): no binding

B6: Anti-hepcidin Mab 3.23 (antibody, human IgG4 S228P, kappa, V domains shown)
VH: QVQLVQSGAEVKKPGSSVKVSCKASGYTFLIYPISWVRQAPGQGLEWMGNFHPYLGVTNYVEKFKGRVTITADKSTSTAYMELSSLRSEDTAVYYCARGGTGSFDYWGQGTTVTVSS
VL: DIQMTQSPSSLSASVGDRVTITCSASSRVSSTYLFWYQQKPGKAPKLLIYRTSPLASGVPSRFSGSGSGTDFTLTISSLQPEDFATYYCQQWSGYPFVFGGGTKVEIKR
Question: Does B6 bind (human hepcidin-25 [9])?
Answer: binds

Question: Does B6 bind (human hepcidin-20 [10])?
Answer: binds

B7: Anti-hepcidin Mab 3.12 (antibody, human IgG4 S228P, kappa, V domains shown)
VH: QVQLVQSGAEVKKPGSSVKVSCKASGYTFLIYPISWVRQAPGQGLEWMGNFHPYLGVTNYLEKFKGRVTITADKSTSTAYMELSSLRSEDTAVYYCARGGTGSFDYWGQGTTVTVSS
VL: DIQMTQSPSSLSASVGDRVTITCSASSRVSSTYLFWYQQKPGKAPKLLIYRTSTLTSGVPSRFSGSGSGTDFTLTISSLQPEDFATYYCQQWSGYPFVFGGGTKVEIKR
Question: Does B7 bind (human hepcidin-25 [11])?
Answer: binds

B8: mouse monoclonal antibody 3A9 (antibody, mouse IgG1, kappa, V domains shown)
VH: EVKLVESGPGILQPSQTLSLTCSFSGFSLNSYGFGIGWIRQPSGKGLEWLTHIWWNGNKYYNTTLKSRLTISKDTSNNQVFLKIASLDTADTATYYCALIHYYGNSYGFAYWGQGTLVTVSA
VL: DIQMNQSPALMSASPGEKVTMTCSASSSVSSMYWYQQKPRSSPKPWIYLTSNLASGVPPRFSGSGSGTSYSLTISNMEAEDAATYYCQQWSSYPPTFGGGTKLEIKR
notes: also called Mab 3A9
Question: Does B8 bind (human hepcidin-25 [12])?
Answer: binds

B9: mouse monoclonal antibody 4C11 (antibody, mouse IgG1, kappa, V domains shown)
VH: QVQLKQSGPGILQPSQTLSLTCSFSGFSLSTYGIGVGWIRQPAGKGLEWLAHIWWNDNKSYNTALKSRLTISKDTSNNQVFLKIASVDTTHTATYYCVVIGYYGSTSGFAYWGQGTLVTVSA
VL: QILLTQSPALMSASPGEKVTMTCSASSSVSYMYWYQQKPRSSPKPWIYLTSNLASGVPARFSGSGSGTSYSLTISSMEAEDAATYYCQQWSSNPPTFGGGTKLEIKR
notes: also called Mab 4C11
Question: What does the source list for B9?
Answer: binding result (human hepcidin-25 [13]): binds; binding result (human hepcidin-20 [14]): no binding; Kd (human hepcidin-22 [15]): ~209 nM; binding result (mouse hepcidin-25 [16]): binds; binding result (rat hepcidin-25 [17]): binds
